# Source: PMC5234717 (Journal of Lipid Research, 2016)
# Target: Burkholderia pseudomallei K96243 sphingosine-1-phosphate lyase S1PL2021 (shorter ORF of BPSS2021, st (Burkholderia pseudomallei K96243))
# Assay: SEC
substance,measurement,value
"Burkholderia pseudomallei K96243 sphingosine-1-phosphate lyase S1PL2021 (shorter ORF of BPSS2021, st (enzyme)",stoichiometry N,2
